Assay results taken from a protein production outcome set (Wang et al. 2014).

Assay: label from the status in PepcDB records

Sequence | protein production
MGTTQLESVPEPKYWHLKTVLSEALDSEFSVGEILPNERDLAARFGVARATLRQALEQLELEGRLQRRRGVGTTVAPPRMGVAVGSEQHTWPGAAGDAWQPVDCTVAAPPPAVAGVLETGRNEQVHTVRRSRVTHGHPVAAELLYIPDFSVPDLSAIDAPSGAARARAVLRELQRLELEGQDRAVELGSARAEDAKELDRLPGAPVLVVTTRFFAEGRAAAVSVATYRADTCRLTFGDSGGVEIHHDPERRAS | failed
MGTYVEPSKLSYGEYLESWFNTKRHSVGIQTAKVLKGYLNSRIIPSLGNIKLAKLTSLHMQNYVNSLRDEGLKRGTIEKIIKVIRNSLEHAIDLELITKNVAAKTKLPKADKEELEHHHHHH | failed
MGVFLDKSIKDVVDGLNVRYFLPDIQREYVWLKKADEKKIEQLFDSILRGYPIGSFLFWKLQKEDIAKSDEQDSDKLNFQLYQFITNYDVRKPHNEKIRIEQINRDDLYIVANSV | failed
MGVFLVLLGGIFWAISGVLAEYLFKNNYSVDWVCFYRLLSTGLILIFLSFKTQKILVFANLKESLSICIFGFFGLLLTQFGYFKAIYYTDAGTATMIQYCAPLIIMLYLCFKNKKFPKLIEIFALILIIFALFLLATKGDIEAVVLNYWGIFWAVIGAFGVAFYSLSAREVILKYGLFWIMGWASLFASFVFLLILQFDKGLIHYAFNLKAFFSMGGIVFIGTIGAFCLYLKGVEYIGALRASMIASIEPVAAALMSFLFLKTRYSLLDIFAFVLIILSVILNAKKTKAS | failed
MGVISAYAVVHERAAIIDPGTAKGAEIILDEIDRSWNVEYICPTHIHIDHGGGAARLAKALDAKIIVHPRGVKHVVNPEKLWEASKAVLGEVAEIYGKPESIDESKVIAVEDEQEFDLGGERLKVFHAPGHAPHMLVYYLTNSKVLFPADAVGMCFGGVVFPLTPPPFDADAALKTLKRLKGLKVDYVAFTHYGVVELEHHHHHH | failed
MGVKRKKMGKVAGFTEWTAEDLEAFRARWPIGTAQRLALELYQWTGARCVDVIRLGPQMVGRDGVLTYVQQKTGNPAHVPWTCPAFGLEEQRADLMRCLPVGSPVYMLTEYGKPRTQKGVSQWFSAAAREAGLESRTAHGLRKYRMNALAEHGASVLVMQSWVGHTTLLEVQEYTRLEHHHHHH | not failed
MGVNETGYVLIYGGSSWVSQPQALETIYPAENWQEIIQDFRQKQPDLPVVVIQGPDDEQFVRSLRDYSLDIKVTSPDNVGKLTAMIAGANLMLTTDSAPLHLSVAVQTYTIALFGSTDPVKLLPNSDKLLGIKSSTGRVADILPKAVLEKVWGGLEHHHHHH | failed
MGVRLVLRLVPRLVTRFTPLGLGMVALGCALVASFYSPPSFASIWDLLTNKRGVSQASVSKDSPRIELVGTLPADTELELIGFYYSSICTEKEMYFPSGDIANPQWRTKGTTSQLRQVVTSLHNASHFTQSVALQGGGACEWQLTNIQLNMSLLPSHRLWQEAQSLKKQYLAELPVAKVKDEALEKDAFKQSFDLIPTAKEADAASADSNDATITFSPIYYPIYSYAPEDKQPFDVGLKSSLQREVSDRWSLQHSRRIRLADERVTRVNFTPQIAEDYAVNIHILDRKSKVSYPDGTEFTYIKAGLRLYPYGSAESRFNSLQRSARLEDKRQLAKIYDSGIEHVFEGDKAKAEVLYRELGEAGDMESINWLRERARWGYIKDGQYWLARAAKLGDIQAQLELINQPLSVIPQGKVNTGQAKIREQQAWQTLTELTKQGIPQAVSTMAYYQVFSCSPYFNTTAALDNYRKSVKAQPDLARDAAETYYYFKEDLAQAREFFEIAAEREIDVAAEYAGILLAAEQRDPKRARYWLEKVVTAGDKQYIQQDVLGYAYFRLASLLDAGEGGDADPKRAITLYQQSIELGEGFSNDYQAKAKERLQSLQERHL | failed
MGVVFAFGFYLIFIKLTGLKLMDYFPRFKENRLKMIFSILSVILAFLINWLIMKNFSFLIEIIHPIASVWIFIILIYLLLRFLFLKRVPLSNYEKKFMGNMSAIAIFLELLKIIEYVDEHNIASPITVALVFFIPVVVFFNCKYFYEMELSS | failed
MGWKMQATVTEIGKHAIDDSEKMIILFGETATDTLKQHAVIQSFPEKDQVTLAEGDHLKIGDTNYTITKVGSFANSNLQSIAHSTLIFADAPTDEDDVIRNGVYLTPHQLPKITIGTTIDYLVNGA | not failed
MGWVRTKALTMEQPSAPSLTRWLFAGVLMAIIGVLLFILHASGTVKIISVINIWWVSLMPAGCWLLIFCLRCYLWDRDLKAHQFLLKEAEYGQQRWEDWAGRWLAVLSSAVLLPDHISAAHWGSERPQQYGLARRINYLPVEEPVQLSAMHALLTSIEERVQCLPEELPLYVTLITDNPSPELTSSFSNLWKEHIPGRAVPDDITVTGSFSLSEVEERLKQPVLTVNLLLVIQLNGGTAYSDGLAVLLLTSDDVAQKYHLPHSSRLLRPMPLDMTNFEDDITLFLETQTVACQTPSVIGDAKKWTERSAALITQGGKMHTPWKAEDIALLEKWCGIPGPAAPWLLTALAADLVSLRKQPLLALFSSEQEHFISTITPGSEDDYTG | failed
MGYLIGGDIISSSPFTKIFYGSCRKIAVFIFSVLSLTIISGILMYFIEGETGGFTSPSLSIYWAIATLLTVGYGDVVLQTSVGRAMASFVSVLGLSIIVVPIFIVIAEIFGLLSRTFSW | failed
MHDIILMPCPEVSIIILTRNGKATIGECLKQVYAQNYTNFEVIVIDSASTDGTPDIVNNFPVRFFSIDVKDFGHGKTRNYGAKLSKGKYLAYLTQDASPFNEHWLENLIRNFSDEEVAGVYSRNVPRSDCDPFEARYISSGWGSDREVKSMQNCRNYKKLVFFSNTSSCIRKDTWEKFPFNELLVQTEDQDWSKRVLEAGYKIVYDPGSVVVHSHNNSLKILFKKYFDAGTAHIQIFKNRNNVYLPLIPFFSVISTFLDIRFMFFNNYETINIIKWVPRAVVRHFVEATAFWLGLHFDILPQALKRKFTASGHY | failed
MHFKKSLVRSLITLAITATASTTVLANEVSGDISKFKSVGNEVNTKQKATGYIVQLKGKTAIAQAQEIGELLPTNQLVANTGNRYNAHTPAMEAYTKALENKQKQVASSIDSINILHSFKHTYNGFTAKLNAKQKAQLESHPDVIGVYEDKLETVNTANTPEFLGLTGAGGQHAMNIKGEGVIIGVIDTGVWPENPSFADDGSYSDPADLGWLGSCDTGTDEEFACNNKLIGAKYFDSSFSSQYDIQYDLGEFDSPRDADGHGSHTASTAGGNESVAAMLSGTPVGTVSGMAPRARIAAYKVCWNSDYKNPEGGDEAGCFGGDTMAAIDAAVTDGVDVINYSIGGSRTDLTVPATAAMLNATAAGVFVAVSAGNDGPDKETVGTPAPWVTSVAASTYNGTSAIVGKALDITSGTLAGSSILSVPSGFSPATVGLSGELALAEPVQACNDAPLTNGEDLAGKIALIARGSCAFTEKFLNAQNAGAVGAIIYTTEGTSPFSMGGTDPAVTITGSMISFADGQSLTASIEDGSTSVAFTDNTAAGEAVEVGNTMADFSSRGPNLNTYDIIKPDITAPGVKILAATTSAPMFGTQGETFKYLQGTSMSSPHIAGLAALFKESNSSWSPAQIKSAMMTTARQNLTKEDGTTQADPYDFGSGHVAPVSALDPGLLFDTNLADYLAFLCGQDKEAFVSGYDTSCADLATAGFSTDASQLNLASIAIAELLEPETIFRTVSNATPIASSYTATVEAPAGFDISVQTFDAAGEETEASTLDVAAEGGKASFAITVSQTETTEIEAWKFGAITWTDGAGHSVRLPLAIKAIPSVQIEVPELISGDLNRGRFRFPVKMLYSGRTSIKHAGLVAPFGTAGTVEADPAQEFEFLGAGTNYHLFHIPEGTQVARFSLSDALVTEEGSDLDLYVYRCDKWSCAQVANSLNGGSNEDVVLTNPEPRADVDVGDVYVTMIHGYSTGAATETDYTMVGWIADQAERTTRVISSRRAINGRFNYTSILTRGLPTGTTYMGAVTYFNAEGEAEGTTVLELKN | failed
MHFNLPTYLTLLRIVLIPVLTVAFYLPWSGAHVVSGVIFAIAAITDWLDGYLARRMGLATRFGAFLDPVADKLMVAVALVLIVQAEPRPLIALASAIIIGREITIASLREWMAEIGQRKRVEVSALGKWKTTFQMLAITLLLLGLDIPHGGVKTTGELLLVVSATLTLWSMIVYLQAAMPVFKAGAEAE | not failed
MHGPPESQEPCGTFGPDETTGATSTAASRGEARRLPRGGVLWALVDCNNFYASCERLFRPDLKGRPVVVLSNNDGCVIARSAEAKALGVPMGAPEFKVRDMLRAHDVAVFSSNYALYGDLSQRVMRTLATVVPRVEVYSIDEAFIPLPAALAADPVAVGRTLRQRVAQWVGIPVSVGVGPTRTLAKLANRLSKQDSAYGNVFDLTPETVDMDRVLASVDVGDVWGVGRRSAEMLRGRGILTARALRDADPLWVRQRMTVTGWRTQQELRGMPCLTDDDLPVPRRSIRSSRSFGQMVRTLEPLREAVATFTARAVAKARAEGLVASCIEVHIRTPRHTERPRYDETTTITLPCPTADTGLCIRHALTGLERIFREGYLYAKAGVTLFGLEPAAGRQGSLLDLLDGSHEHKARRERLMAALDAVNLRHGRGSIRHGAEGDPGAAWHMSQKYRSPRYTTAWEELPEVLCR | failed
MHHYRVSGWTLATEIPLPHLFPCSAPAGEAAADITLRQGPVPPPPVPLRLDRDGIQVGADGHTVIDIPNCVRIGLTGGRDIMVDPAPGASWPEIQTWLLGPGLGVICHQRGVLPLHACAIRTGKGGLAIVGNSGAGKSTTATALVQRGHRLLGDDVLVVDPDTGLAQPCFPMVKLWDSSRSALDIGQEGQQSVGGKIGKWHMPMLAAFDPVPRPLSAIVHLRADPAARRPVLTRWPRPHAAAVLDAMTYRVYLADALHGRRHVLSAATRLAAHVPVWELVRTADFADLAEMLDMLEGLAGALEHHHHHH | failed
MHIHILGICGTFMGSLALLARALGHTVTGSDANIYPPMSTQLEQAGVTIEEGYLIAHLQPAPDLVVVGNAMKRGMDVIEYMLDTGLRYTSGPQFLSEQVLQSRHVIAVAGTHGKTTTTTMLAWILHYAGIDAGFLIGGVPLVNTTDTNLQQVFAHSSYLGTEKDDSDNSVNTGYFVIEADEYDSAFFDKRSKFVHYRPRTAILNNLEFDHADIFADLDAIQTQFHHMVRMIPSTGKIIMPAATISLEDTLAKGVWTPIWRTSVIDSTISSVRREDSPLENSQAENSSDWQAELISADGSQFTVSFNDNKEATALVNWSMSGLHNVNNALVAIAAAYNIGVSVKTACAALSAFAGIKRRMELIGDVNDILVFDDFAHHPTAITTTLDGAKKKLADRRLWAIIEPRSNTMKMGIHQDSLAQSATLADHTLWYEPTGLEWGLKEVIDNATIANPSIGSQQVLSSVDDIIKHICTHAKAGDAIVIMSNGGFEGIHQRLLTALGNIVAIL | not failed
MHLGSTFYDETELRSLPFRHLGANVKIKRTAGLFFVENISIMDDARIDDFTIIVASREHVEIGCNVHIASQCYISGSDGFVMEDFSGLAPGVKIYTSSDDYTGEKMTNPTLPRHLIGGPAGKVVLRKHVIIGSNSVVLPKVTIEEGSSVGSLSLVNKSLPAWGVYAGIPVRRLRDRSQNILILEKELGASRA | failed
MHLGVIGATGTIGSRVVTEALARGHHVTAFTRDSTQIDEDRGNVVWKSLDVLDAASVAAGISGLDVLISGFQPGNAAKDIADTVARSIADPTVYATAARSLLKALESHPRTRLIVIGGAGSLEIEPGVVRADSDELLHSSLDALGLPRQYAAAVRGHRDALNVLRTSNRLWTYFSPAEDIAPGERTGRFRTGGDQPVLDAEGRSRISVEDAAVALVDEAELPRFVQRRFTIGY | failed
MHLLVVEDDDIVRMLMVEVLDDLGYKVIEAEDATAALRVLEDPSQALALMMTDVGLPDMRGEELAGKARELRPLLPVLFASGYADSFNVPEGMHLIGKPFSIDQLRDTVVGILGTP | failed
